Data published in article PMC12124957 (Nature chemical biology, 2025).

Target: the molecule itself
Test: light scattering at 340 nm

B1: ^ΔCFtsH (T. maritima FtsH variant devoid of the N-terminal TM domain (residues 1–146) and of Cys residues) (domain or fragment, UniProt Q9WZ49 147-610, looked up)
chain: ATMYKPSGNKRVTFKDVGGAEEAIEELKEVVEFLKDPSKFNRIGARMPKGILLVGPPGTGKTLLARAVAGEANVPFFHISGSDFVELFVGVGAARVRDLFAQAKAHAPSIVFIDEIDAVGRHRGAGLGGGHDEREQTLNQLLVEMDGFDSKEGIIVMAATNRPDILDPALLRPGRFDKKIVVDPPDMLGRKKILEIHTRNKPLAEDVNLEIIAKRTPGFVGADLENLVNEAALLAAREGRDKITMKDFEEAIDRVIAGPARKSKLISPKEKRIIAYHEAGHAVVSTVVPNGEPVHRISIIPRGYKALGYTLHLPEEDKYLVSRNELLDKLTALLGGRAAEEVVFGDVTSGAANDIERATEIARNMVSQLGMSEELGPLAWGKEEQEVFLGKEITRLRNYSEEVASKIDEEVKKIVTNSYERAKEIIRKYRKQLDNIVEILLEKETIEGDELRRILSEEFEKVVE
With B1 as the protein, how does the koff read?
The koff was at least 1.6 s⁻¹.
